# Patent US20140186823
# How the values were obtained:
# [1] = target: MS-(B1-L88N)8 L88N (Mycobacterium smegmatis) (UniProt A0QR29); details: four 5' 2'-O-methyl-uracil on SEQ 19; 3' Cholesteryl-TEG on SEQ 20; mean S.D. of current levels; helicase translocation, +140 mV; unit assumed
# [2] = target: MspA NNN-RRK pore MS-(B1)8 (Mycobacterium smegmatis) (UniProt A0QR29); details: four 5' 2'-O-methyl-uracil on SEQ 19; 3' Cholesteryl-TEG on SEQ 20; mean S.D. of current levels; helicase translocation, +140 mV; unit assumed
sequence,measurement,setting,value
NNNNTTTTTTTTTTTTTTTTTTTTTTTTTTTTTTTTTTTTTTTTTTTTTTTTTTGGTTGTTTCTGTTGGTGCTGATATTGCTTTTGATGCCGACCCTAAATTTTTTGCCTGTTTGGTTCGCTTTGAGTCTTCTTCGGTTCCGACTACCCTCCCGACTGCCTATGATGTTTATCCTTTGAATGGTCGCCATGATGGTGGTTATTATACCGTCAAGGACTGTGTGACTATTGACGTCCTTCCCCGTACGCCGGGCAATAACGTTTATGTTGGTTTCATGGTTTGGTCTAACTTTACCGCTACTAAATGCCGCGGATTGGTTTCGCTGAATCAGGTTATTAAAGAGATTATTTGTCTCCAGCCACTTAAGTGAGGTGATTTATGTTTGGTGCTATTGCTGGCGGTATTGCTTCTGCTCTTGCTGGTGGCGCCATGTCTAAATTGTTTGGAGGCGGTC / GCAATATCAGCACCAACAGAAACAACCTTTTTTTTTTTTTTTTTTTTTTTTTTTTTT,activity,[1],1.79 pA
same,activity,[2],2.3 pA
